# Assay: soluble on expression in E. coli; label from the status in PepcDB or PDB records
row,Sequence,soluble on expression in E. coli
1,MGSDKIHHHHHHMKFDYEKEPSRDILCIDCKSFYASVECAERGLDPLKTMLVVMSNAENAGGLVLSASPMAKKVLGVSNVTRKNQVPAHPDLYVVPPRMNLYMKKNQEINNLYKKFVADEDHSVFSVDESFLDVTASLSYFHCETAYKMARIIQRVVYNHVGIYVTVGIGDNPLLAKLALDNGAKHSPDFIAEWRYDRVPDTVWQLPSLTDFCGIGRRMAKRLNRLGIDSVYELAQANPHLLQETFGMMGLQLYAHSWGIDRTFLGKKAPHKAEKSFGNSQILPRDYARRDQIELVLKELTEQVAARLRKAHCQTECITVYVGYSKGQIDREGRTGWRKQQTIPATNNTKVLITYVLALFREHYLAGTDVRQLGLSYGKLVWNESLQLDLFSEPEEQISEMELNYLIDKIRQKFGFQALIHTSSLLEGATAIHRSGLVGGHAGGNVGLGG,not soluble
2,MGSDKIHHHHHHMSHWFFIINPTAGHRNGLRVWKSIQKELIKRKVEHRSFLTEHPGHAEVLARQISTIQEYKLKRLIVIGGDGTMHEVVNGLKDVDDIELSFVPAGAYNDFSRGFSIKKIDLIQEIKKVKRPLTRTFHLGSVNFLQDKSQILYFMNHIGIGFDAYVNKKAMEFPLRRVFLFLRLRFLVYPLSHLHASATFKPFTLACTTEDETREFHDVWFAVVSNHPFYGGGMKAAPLANPREKTFDIVIVENQPFLKKYWLLCLMAFGKHTKMDGVTMFKAKDITFYTKDKIPFHADGEIMGTTPFRLASSPSPLRIKT,not soluble
3,MAHHHHHHMPPKRYPNRLLVLCASINDVTAWPFWKFLQMKKIRGVTDMALLAFNSDGGSFEARIDGDKYQLKNYAKVRGYQHDMFESFVHRWHDPGRSYFVYGGHGMGDYVELEQNRVIAAGARARRRLRHACLRSSAL,not soluble
4,VDSKKRPGKDLDRIDRNILNELQKDGRISNVELSKRVGLSPTPCLERVRRLERQGFIQGYTALLNPHYLDASLLVFVEITLNRGAPDVFEQFNTAVQKLEEIQECHLVSGDFDYLLKTRVPDMSAYRKLLGETLLRLPGVNDTRTYVVMEEVKQSNRLVIKTR,soluble
5,MKVLTVFGTRPEAIKMAPLVHALEKDPHFEAKVCVTAQHREMLDQVLTLFSIVPDYDLNIMQPGQGLTEITCRILEGLKPILADFKPDVVLVHGDTTTTIATSLAAFYQRIPVGHVEAGLRTGDLYSPWPEEANRTLTGHLAMYHFAPTENSRQNLLRENIPDERIFVTGNTVIDALIWVRDRVLTSDTLQAELAEQYPFLNANKKMILVTGHRRESFGQGFEHICQALAEIAAANQNVQIVYPVHLNPNVSEPVNRILGHVENVVLIEPQDYLPFVWLMNHAWLILTDSGGIQEEAPSLGKPVLVMRETTERPEAITAGTVRLIGTDSRRIVAEVMRLLHDENEYQTMSRAHNPYGDGQSCARILQALKSYRVSL,not soluble
6,MKLFHRITISLSEDDMKLIEELRRDSGDSLSKIFREAIQLYYNLLKASKAAGVDFRKYFANATRLAFHINGVEQKQFAVIDREIYRVMLKKLQEKVPPESIESDEEFRSAVAGVVKLFEITRDRWSEYTDEQKLEEILTTMEFAGAGTFARVGDKEYIFNTYAESTAITKLIISSVLASAGLKVEIDHTPGKIFIRL,not soluble
7,MFQASMRSPNMEPFKQQKVEDFYDIGEELGSGQFAIVKKCREKSTGLEYAAKFIKKRQSRASRRGVSREEIEREVSILRQVLHHNVITLHDVYENRTDVVLILELVSGGELFDFLAQKESLSEEEATSFIKQILDGVNYLHTKKIAHFDLKPENIMLLDKNIPIPHIKLIDFGLAHEIEDGVEFKNIFGTPEFVAPEIVNYEPLGLEADMWSIGVITYILLSGASPFLGDTKQETLANITAVSYDFDEEFFSQTSELAKDFIRKLLVKETRKRLTIQEALRHPWITPVDNQQAMVRRESVVNLENFRKQYVRRRWKLSFSIVSLCNHLTRSLMKKVHLRPDEDLRNCESDTEEDIARRKALHPRRRSSTS,soluble
8,MSLFTGPIVAVGEYVEGLGEGRRYVSIPYYRREIERVIGARPFPGTFNVRVEREERESLRELASSYGYRIEPHGEYGGAWLYPCLVNGRPAWLVFPDLTEHRDQVELISETELRRELNVIHGDMVKIEVWGPSTWKLARRLTCGPSGGREGHHHHHH,soluble
9,MGTQQKDVTIKSDAPDTLLLEKHADYIASYGSKKDDYEYCMSEYLRMSGVYWGLTVMDLMGQLHRMNKEEILVFIKSCQHECGGVSASIGHDPHLLYTLSAVQILTLYDSIHVINVDKVVAYVQSLQKEDGSFAGDIWGEIDTRFSFCAVATLALLGKLDAINVEKAIEFVLSCMNFDGGFGCRPGSESHAGQIYCCTGFLAITSQLHQVNSDLLGWWLCERQLPSGGLNGRPEKLPDVCYSWWVLASLKIIGRLHWIDREKLRSFILACQDEETGGFADRPGDMVDPFHTLFGIAGLSLLGEEQIKPVSPVFCMPEEVLQRVNVQPELVS,soluble
10,GSLSLIRKKGFYKQDVNKTAWELPKTYVSPTHVGSGAYGSVCSAIDKRSGEKVAIKKLSRPFQSEIFAKRAYRELLLLKHMQHENVIGLLDVFTPASSLRNFYDFYLVMPFMQTDLQKIMGMEFSEEKIQYLVYQMLKGLKYIHSAGVVHRDLKPGNLAVNEDCELKILDFGLARHADAEMTGYVVTRWYRAPEVILSWMHYNQTVDIWSVGCIMAEMLTGKTLFKGKDYLDQLTQILKVTGVPGTEFVQKLNDKAAKSYIQSLPQTPRKDFTQLFPRASPQAADLLEKMLELDVDKRLTAAQALTHPFFEPFRDPEEETEAQQPFDDSLEHEKLTVDEWKQHIYKEIVNFSPIARKDSRV,soluble
11,MSVPPGSIIVSDWHRCPDSREFFSKILHKKRRRKFGKTGVGKSALAARLAGLDLPKMHYETTGIETTVVFWPVRLKESGRVLFFRFELWDCGESAMRRFDHMLLSCKEKVDAILFLFSFTDRGSFDDLTNQISRITEPSDRVVKLVVGTKRDGERRDTFSGGVGSSGFPCGR,not soluble
12,MNHDIPALALGPQGEVMAHAIDACVHCGFCLPACPTYALLGDEMDSPRGRIVLMKEVLEGSLELEDAAPHLDRCLGCQGCVTACPSGVPYGELITSFRGWSEPQRERTPLDRAKRYAILKALPAPKLFSVAARVGQFAKPLAPALPAALKAPLDLLPEHVPAMQPQPRVTPARGQRRGRVAFLAGCAQQALTPNFNAATLRVLSRNGIEVVIPEGQGCCGAAALHTGARDEALRLVRANLAAFNPDEYDAILSNAAGCGAGLKEYPVVLHGLPDEAQAQAFAAKVQDISEYLAGLLRDGELAPLMPTREPVKVAYHDACHLAHAQGVRSAPRELLRAIPGVTLTEIPEGDLCCGSAGTYNLEQPELANQLGQRKAKNILGTQPDLIASGNIGCHTQIQSHVRRQGSPVPVMHTVEVLDLAYRGELLEHHHHHH,not soluble
13,MGHHHHHHSHRNRARFAARKQLVLNLVSSPGSGKTTLLTETLMRLKDSVPCAVIEGDQQTVNDAARIRATGTPAIQVNTGKGCHLDAQMIADAAPRLPLDDNGILFIENVGNLVCPASFDLGEKHKVAVLSVTEGEDK,soluble
14,NLMKRCTRGFRKLGKCTTLEEEKCKTLYPRGQCTCSDSKMNTHSCDCKSC,soluble
15,MGSDKIHHHHHHMENQLLTLKNNELTVQINPKGAELTHVIENKNKFDFIWNGSEWPKHAPILFPAIGRSTDDEYLLNQKIYPMQQHGFASDYFFEIIDQKEDQISLSLKDNEETYQSYPFQFELKVTYQLVSKKLKIQFEIKNLSVKKLTFALGFHPAFNLSANFEDYQISFETKDKTLKQFEIVKNPFPYRSGKIIEINKAVSNFPLEREFFEKGLVIFDNKIEEVKLFSQETDYQMTMKMADFPYLCLWTKEDENLSYLCIEPFQGLPDILNQKQELLQKEGNISLKSNESKTYEVELTFNSNKGES,not soluble
16,MKAARQQAIVDLLINHKSLTTEALATRLNVSKETIRRDLSELQTQGKVLRNHGRAKYIHRENQDSGDPFHIRLKSHYAHKADIAREALAWIEEGMTIALDASSTCWYLARQLPDIPIQVFTNSHPICQELGKRERIALISSGGQLERKYGCYVNPSLISQLKSLDIDLFIFSCEGIDSGGDLWDSNAINADFKSILLRRASQSLLLIDKSKFNRSGEARIGHLDDVTHIVSDAPQSLEHHHHHH,soluble
17,MGSDKIHHHHHHMRLGVNEAVELSLGELQNTPSISYFNSIVLSLNKVQKGSLFVAKDHTLIPKALELGAYGILYTGEYPVSDRDVAWIKLKDIEHSLNHLFKFCLLNERVVGALLSPIELEIASKIMVSNFVWCLKESLEDLFIIEGCKIAFFDKLEWLHLFYKQEHLKEDLKESCLIILNQSFFCSALVYEKQEYEFKMPCIFLGSLKRVIQLCEKLQIEFDLNLLGKKEYPLDHCKPFFVNKNLEIAPYGTTARVIVAETSKELFEMMLQKAFEILSWGKIVVFCRKNSAAFFKKTNPYFYTTQNNLKEQLKNLAFNFAFIHGISSHHLESLLNPPFFKKTPTLW,not soluble
18,MKINSPLEAYKYLPQTNCGECGQPTCMAFASTLIDRSGKTTDCPPLIKEKKFAKKLAELDRLLAPEIRQVTIGVGERAANIGGDDVLYRHKLTFFNKTKMFFDVADNMDEAAIVERVKKISDYKKFYVGRNLLLDGVAIRAASNDPAKFATAVKKVIENTELPVILCSFNPAVLKAGLEVAKGKNPLLYAANKDNWKEVGELALEYNVPVVVSAFNDLDGLKTLAKTFAEAGIKDIVLDPGTYPTGKGLKDTFTNFLKIRRAGIMGDTEIAYPIMAMPLTAWMAGIADPVSASYWETVLASIFTIRYGDIMLLHSMEPYATMPEVHLAETIYTDPRSPVAVDSKMYKVGNPTADSPVLFTTNFALTYYTVESDLASNGIDCWLLAVNTDGIGVEAAAAGGQLTADKVKDAFEKSGFDLKSDVTHNSVVIPGLAARLQGDIEDKLNVKVMVGPMDSGRLPGWMEKNWPPKK,not soluble
19,MGSDKIHHHHHHMNNKIYFTPGPSELYPTVRQHMITALDEKIGVISHRSKKFEEVYKTASDNLKTLLELPSNYEVLFLASATEIWERIIQNCVEKKSFHCVNGSFSKRFYEFAGELGREAYKEEAAFGKGFYPADITVPADAEIICLTHNETSSGVSMPVEDINTFRDKNKDALIFVDAVSSLPYPKFDWTKIDSVFFSVQKCFGLPAGLGVWILNDRVIEKSKALLAKRKSIGTYHTIPSMLEKARVNQTPETPNAMNIFLLGKVTGDMLQISADGIRKQTEEKAALINTYIESSKVFSFGVEDAKLRSMTTIVANTTMLPGEINKILEPFDMAVGAGYGSKKETQIRIANFPAHSLEQVHKLVQTLKEKIG,not soluble
20,MGSDKIHHHHHHMTNDSIKSETEVAPRDQSAVGTIPWAIKGELILNCNCTVFCPCVVSLGKHPPTEGYCQAWAGVRIDEGHYGDADLSGLNVGLVLEIPGLMARGNWKAAAYIDERASDAAYEGLIDVFSGKARGTTGLFKVLVSEFLGAERAPVLFETEGKTRRLIVGYYIHGEVVPVGGADSDQDIVVTNTEYWMGPDITVATATKGRVRAFGRVWDFDGRSAEICQIDWKGPR,not soluble
21,MQAAVTVTPARLPELLLGLATVRPVFLWGAPGIGKSSLVRNFADSLGLECVSLLGTQLAPEDLIGVPQIRDGRSVFCPPESIARDEPYCLFLDELNAATPDVQKAFYSLILDRRIGNYELPKGSLVIGAGNRATDNALARPIASALVNRLTHVHLDASAKDWLVWAGENGIHPWITDHLTDRPDHLWSKPPKTEEPFSTPRSWHMLSDALHSFGQDLDEETLKVLAHGTLTPAHATAFCGYVKIVRSRFGIEAILKGEARWPSRIEDRDLLYYLAESFRGRLVKELPASKEHMSANGRQTAYRAKSLLVQLAEISVEVAQSVIASDADGNPLLPAWFLVEAARDMPRLVEARRLEHHHHHH,not soluble
22,MRTNAFEAVARYVYPSLRRRLVEILRERGLTQIQIAELLHITQSAVSRYLRMNRGALIEVEKFQDIDEKLKGLADTIVREKPDEYYIHGELVKIAVEMLGKGYVCSFHSKVDPEIDPKLCRICIETFGLEHHHHHH,soluble

# Reference: the DeepSol protein solubility set
